The results in this text go back to the DeepSol protein solubility set.

A short description of this data set: soluble on expression in E. coli; label from the status in PepcDB or PDB records.
As for “AIADAFEHENRYVHAVYEAIGDHFSATRYRTWPRVQAFLEQLAHEALVLDSGAGNGKYALPVLRQHGYYIAADRCRRLLLRARWQSDALEAQETALLPVECVQADCLFLPFRSGVFDVALSIAVIHHVATARRRVGAVVELGRVLRPTGHALVYVWALRAIPLKLRSRAQSTMDGYLLPWHHKRSTGADALPQKKSDSPSQTYFRFYHLFEEDELRMLVEEANAVSKEGAATTWTLRITGETFDHQNYVVEFQRQNIHALLEDAADNILHPSI”, the “soluble on expression in E. coli” value is “soluble”. The result for “MAHHHHHHMNPLYTDSISYSASDANITLPQQSMPQWANTNATASRVSAAPATAGEQAQQGNFASSLNSAGGFSVHVGSDAARSTLCSPKIATESLTAAAATTTTTKATTAVRRAPFLNPPPQQPLSGTRNRLSAPGSPAMYRSGPPIGFGGGPNYYYQYGGNTFIQDGKQQENEYYPPLPMSTPFHPVTAITKLVPLPHPKTGRGGIPAIFRFWGPIGSPAPRTPVPVPSLPNAGGVAATVFLAAIPISLVPQQMHPLSPRHPATGGSPAASSPLGGGESMGMSLVEVHHHSNGSSLGAGSPTAPAITPAPATAAAGASAVNLTVRVRRRTGGGNTAAIRVGGGASLAPLQLPSQGTSSLGASLTTLATTGPAKGPGTPFKHSPITPSNLPPAPLFAQSAPAQLLVDDSGSQRLSPTSMLPTNLVNEGSKTKGESVLRVDEDTYMQREAFRWNPYASTKWAQNRSNSTGASTSDSRGRLPVEGGSGSG” reads “soluble”; that for “RSVRVLVDMDGVLADFEAGLLRGFRRRFPEEPHVPLEQRRGFLAREQYRALRPDLADKVASVYEAPGFFLDLEPIPGALDAVREMNDLPDTQVFICTSPLLKYHHCVGEKYRWVEQHLGPQFVERIILTRDKTVVLGDLLIDDKDTVRGQEETPSWEHILFTCCHNRHLVLPPTRRRLLSWSDNWREILDSKR”, “soluble”.

For the sequence “FLSTRDNVDELRKIENKSSFVSADNMPEYVKGAFISMEDERFYNHHGFDLKGTTRALFSTISDRDVQGGSTITQQVVKNYFYDNDRSFTRKVKELFVAHRVEKQYNKNEILSFYLNNIYFGDNQYTLEGAANHYFGTTVNKNSTTMSHITVLQSAILASKVNAPSVYNINN”, the “soluble on expression in E. coli” value is recorded as “not soluble”. Then “MIDVFDGQVTTRIALQLLALLAQRPGELRHAKWSEFDEADKVWAIPAGKMKMRRDHFVPLADQAITLLNELRPLTGESEYLFPSLRSWHRPMSENTMNAALRRMGYSGDEMTAHGFRATFSTLANESGLWNPDAIERALAHEERNELEHHHHHH”, with “not soluble”; and “MVSMLLVGRIGKSVGLNGGLRLHLESDFPECLKKGVKVSVAPLNAFSCVSSFKEYIIHSYEHAKNLLFLETIQTPEKAKELTNLGLFMSEAESKKLCVLKEGEFFYCDLVGLSVVEENEILGKVIEIQRISQTDYFLVETTLNLVEKGLAKIFLIPYRDFYIQEILLQDKKITTHNAKTLLENSLEHHHHHH”, with “soluble”.

As to “MTENNVDPYEVVKKRYESTVDSFVLSDLFQPTLESNQELIDDVKDNRLVIYTAFTGNYDELKEPEFIDENCDYVCFTENPDLESDTWEIVQMEKSTLDDNRKAKQYRLFTDKYFPEYKYSFWLDGTFKIVGSIREYIYKYAKSKMLVVVHPERDCIYDEAVMSMPFPRYSNYTMTKQVEKYRSEGMPEHYGLPATGALFRAHNDPEIISIMRQWWREVVNYTNQDQLSLPYVMWKNNFHPSVSDVYYWVNEYWSKEGSYQHNFEIEDYITSRNLIESLEGNIKDKNTLTKEEINLLFNDIDALRDEANALNIARDHWDRQIRGVRNSTSWLEHHHHHH”, the “soluble on expression in E. coli” value is on record as “soluble”. Regarding “QAAVTDYYKTLHLFFISPEKGKEFERSTSIRRRVKAMPHGVNRLFSSLYYYYTLIQERATPRLQRLLDQLEADYPQNTIPETLRQHLRKDSRR”, the “soluble on expression in E. coli” value was “not soluble”. For the sequence “MGSDKIHHHHHHMSKNNNPVEQLLKEKPYILLDGALATELERHGRNLDDPLWSARVLLEEPEQIHRVHANYFKIGADCAITSSYQASVAGFSSRGIKEEEAIELMKQTVYLAQQARAETGPAADHALIAGSIGPYGAYLSDGSEYIGHYGVDDAQLEAFHRPRLEALIAAGADVLAFETIPSLQEAKMLFRLLEEFPEQSAWLAFSLRDATHISEGTPLSECIEALGDHPQLAAIGANCFPASIATEFITTLKQLTDVPIIVYPNSGEQYDPVSKTWSGETVRTAFEDIAPEWYAAGARLIGGCCRTTPEQIGEIRKIVHAQ”, the “soluble on expression in E. coli” value is on record as “not soluble”. As for “MQALAAMPAPVAASVRIVLTDIDDTLTTEGRLPAGAYAALERLEQAGIVVVPITGRPAGWCDHIARMWPVRAVVGENGAFYYAYDRSARRMNAHYWADAATRAANRQALQAIRERVLREVPGTAVASDQDYRVADLAIDFCEDVPALPDSAVGRIVEIFHEAGAQAKVSSIHVNGWFGDYDKLTMTRTLFEREFGLSIDSALQHTLFIGDSPNDEPMFKFFPISVGVANIQSQLHRIQHRPAFVAAARGGDGFVEMAERLLANRG”, the “soluble on expression in E. coli” value is given as “not soluble”.

Regarding “MDPVIKLVAHAQEMSMTIPRRQACMVYGKLNVTLKKGDVQEERDKRVTDGYVHIPEDMPQGRFDFGFTREDADVNIGTGQSTYELALDTAARRITGQVLFEQDIIAPGFGDWRPLIDFSCGDLVGVRIWGKELVLPVTSITRETTGWRAHVGGQLINDRRKIISENRKILADIESERRER”, the “soluble on expression in E. coli” value is “not soluble”. The result for “MGSDKIHHHHHHMNIETLMIKNPPILSKEDRLGSAFKKINEGGIGRIIVANEKIEGLLTTRDLLSTVESYCKDSCSQGDLYHISTTPIIDYMTPNPVTVYNTSDEFTAINIMVTRNFGSLPVVDINDKPVGIVTEREFLLLYKDLDEIFPVKVFMSTKVQTIYKEVRLDQAVKLMLRRGFRRLPVIDDDNKVVGIVTVVNAIKQLAKAVDKLDPDYFYGKVVKDVMVTNLVTIDELASVNRAAAEMIVKRIGSLLILNKDNTIRGIITERDLLIALHHILVMEKFKEKL” reads “not soluble”; that for “NAVNWGMREYKIYPYELLLVTTRGRNRLPKDVDRTRLERHLSQEEFYQVFGMTISEFDRLALWKRNELKKQARLF”, “soluble”. Regarding “TTDPILFMLSLVQQCRLSPKLAYGVIAGFRFLPLLKDEVQLIQQAHKIRGGAAESGIINKISALKRYTIPLLASAIRKAERTALAMESKGFTGSRNRTYYRTLSVNRRD”, the “soluble on expression in E. coli” value is “not soluble”. For “MSEQPQQRSTEEVEAIKEDILTALETVIDPELGIDIVNLGLIYEVEFAEETGDTVIKMTLTTMGCPLADVLTEQIHGVLKDIPEVNNIEVKLVWYPAWTTDKMSRYARIALGIR”, the “soluble on expression in E. coli” value was “not soluble”.

Take “RVTVMLAAFEGWNDAGEAASDALHYLNKLWDGKKVATVDAEEYYDFQFTRPTVRRTSSGARKVKWPSTRIYKAEVPDSNVDVVLVLGTEPSYRWRAYTTELLVHAEALKVDSVILVGALLADVPHSRPIPVSTTTEDSSLRERLNLEASQYEGPVGIVGVLAEFAMLAGLPTVSLWAAVPHYVAQPPSPKAQLAILHRIEDLLQVPLDSQALAEESEAWERGVDELATEDPEITAYVRQLEEAKDTADLPE”: the “soluble on expression in E. coli” value was “not soluble”. The result for “MQLFHKTVNRRGTHSIKWDTYKNEELIHAWIADMDFEVPQPIQTALKKRIEHPIFGYTLPPENIGDIICNWTKKQYNWDIQKEWIVFSAGIVPALSTSIQAFTKENESVLVQPPIYPPFFEMVTTNNRQLCVSPLQKQNDTYAIDFEHLEKQFQQGVKLMLLCSPHNPIGRVWKKEELTKLGSLCTKYNVIVVADEIHSDIIYADHTHTPFASLSEELAARTITCMAPSKTFNIAGLQASIIIIPNEKLRQAFTSIQYRQGFHGLNIFAYTAMQSAYTECNDWLNEIRFYIEDNAKFACEYIKDHIPTLSVMKPEGSFLLWIDCSALNLSQDERTKLLEEKGKIIVEPGEKYGLGGEEHIGINIGCPRSVLEEILNRLRHTFS” reads “soluble”.

Regarding “MDAQLEWASSLVPKRQLQQQQQQQEQQQQQQQDFHKDQLMTVGMRIRQRVDQGYASRTPSTSDASLQPGVIRDYSSVIVPQFTRSPLPTANSLPPMLINQRTMSTEASSLEKWDVAEPAAEHETMVNGSKRRL”, the “soluble on expression in E. coli” value is “soluble”.

For “MDISSTEIWDAIRRNSFLLYYQPKVDAKTNELIGFEGLIRLKTATAILAPADFFEDIALLNATREMQDFVAETAIEQINQLGGRFSISINIPAHYVVSSNYMTFLYDYVKEHLKYPECLEIEIIERGEITELAVADKNLRKIKKLGVTVSMDDFGKGYSSLAYLRSLPIDIVKTDMSFIALLKTDRKQQIIIQAIVNLCHDLGGKVVTEGVEDIEQVKTLREMKVDYFQGYYFSRPLPMKEIKEKYSIV”, the “soluble on expression in E. coli” value is on record as “not soluble”. The result for “MADDKDVLRDVWFGRIPACFTLSPDETTEREAEPYYLLLPRVSYLTLVTDKVKKHFLKVMKAEDVEEMWFEHEGTPLKWHYPIGVLFDLHASNSALPWNVTVHFKNFPEQDLLHCSTNSVIEAHFMSCIKEADALKHKGQVINDMQKKDHKQLWMGLQNDKFDQFWAMNRKLMEYPTEEGGFRYIPFRIYQTMSDRPFIQTLFRPVSSEGQALTLGDLLKELFPAAIEDEPKKFQVMIHGIEPLLETPIQWLSEHLSHPDNFLHISIIPAPSD” reads “not soluble”; that for “MVLSVVVVGKPRCRSIAVAARERLHRYGEYPMSSNNASGKVVSVDEQAFENAGEQAADEDGFPVVDETPEFEAAVEQETQAKVDANHPDGIADTSEDRIHGVTLEQEERIRAREAELERISAQAELGTQDGREQRTRDIAAKRSAVRRAEFQTRAASVDPMADPERDDPRAELTQEQLAAVNKQSMRLAEKLDGWSRAAIGRRLGEAVVGGKDVTSAVVGVFEELQTAPGTVIPIGKLEDVNRKEVSIEGTVTRLWKPSSAAISQVGLIEDESGKTKFTSWVASEQPWIEEGEHVRIHGAAKNWYNGRVSVALTGWSTVHFPERGRWWEALEHHHHHH”, “not soluble”. Turning to “QNDLMIQSQVKFYTILFSARRATPELEIPEGSFYNGIRGYNLFVAKKDRRTGMLHDMMIYDHSQGFADARIIVADSGKLKMDEGKTFLTLMLHSGETFQNLRSQQTESNAPTPYMRERFRTKEIVIPFDANFSLMDEGAMRGEYVGKNLIQLQRFIDTVTLRVDSASFRNANNLYIQTYNAR”, the “soluble on expression in E. coli” value is “not soluble”.

Take “MGQRYKRMSSTDTNEYMSDNLAKAISNPLFPALDSMLRAGRHISTEDLDNHALLSDFELELSSFYQRYNTELVKAPEGFFYLRPRSTSLIGRSVLSELDMLVGKVLCFLYLSPERLAHEGIFTNQELYDELLALADEKKLMKLVTNRATGSDLDKEKLFEKVRTSLRRLRRLGMIINIGETGKFSISEAVFRFGADVRVGDDIREAQLRLIRDGEAVVHTKEPSQGSLLSEEDQEEQAQEEMTEEGEALEHHHHHH”: the “soluble on expression in E. coli” value is given as “soluble”. The result for “STGKKPKHHVLSHDIIPASKPIAEKLQIQPESPVVELKRILYNDDQPLTFEVTHYPLDLFPGIDTFIADGVSMHDILKQQYKVVPTHNTKLLNVVYAQQEESKYLDCDIGDALFEIDKTAFTSNDQPIYCSLFLMHTNRVT” reads “not soluble”. On to “MGSDKIHHHHHHMERRRWLGAMAGVCPSCGRTLEGSGVRRLCPDCYVERYGVARIPEAVKFVYCRDCGAYRYQGGWNEGLESVEDTLREYLHMVLTVRMKPTEAVEEAWVESIELVQAFAGPGVYTALVTVAGRAGGQSLVERKIITVEASQALCPRCTARSTGRGFEAEVKVRSTAGSLGRDVKTGIARVLRRSRSIAGFVVKVDENREGLDIYLTDQTAARMLAGKLRSEFSAEVKESYKLVGRQPSGRRKGRLTISVRIPEYRPGELISVEGRPHLYLGRSGRGLVTIDLDTGRERVVDTSRTGVLAGVKRYEPGARLRRMMLLSSSGDSMVFLDVDKGMQEVVDAPRGSVRPFVESMEPGRVYEVFIHGGRIYVLRETG”, for which the “soluble on expression in E. coli” value was “not soluble”.
